Source: patent publication US20200017592A1 (Regeneron, published 2020)

Legend:
[1] = target: T1, in-line fusion protein of human IL-36R extracellular domain and IL1RAcP extracellular domain expressed with … (human; mouse, UniProt Q9HB29 20-337; Q9NPH3 21-359, limits assumed); assay: SPR Biacore 4000, mAb captured on anti-hFc, 37C
T1 construct: not shown: mouse IgG2a Fc
T1 sequence (looked up): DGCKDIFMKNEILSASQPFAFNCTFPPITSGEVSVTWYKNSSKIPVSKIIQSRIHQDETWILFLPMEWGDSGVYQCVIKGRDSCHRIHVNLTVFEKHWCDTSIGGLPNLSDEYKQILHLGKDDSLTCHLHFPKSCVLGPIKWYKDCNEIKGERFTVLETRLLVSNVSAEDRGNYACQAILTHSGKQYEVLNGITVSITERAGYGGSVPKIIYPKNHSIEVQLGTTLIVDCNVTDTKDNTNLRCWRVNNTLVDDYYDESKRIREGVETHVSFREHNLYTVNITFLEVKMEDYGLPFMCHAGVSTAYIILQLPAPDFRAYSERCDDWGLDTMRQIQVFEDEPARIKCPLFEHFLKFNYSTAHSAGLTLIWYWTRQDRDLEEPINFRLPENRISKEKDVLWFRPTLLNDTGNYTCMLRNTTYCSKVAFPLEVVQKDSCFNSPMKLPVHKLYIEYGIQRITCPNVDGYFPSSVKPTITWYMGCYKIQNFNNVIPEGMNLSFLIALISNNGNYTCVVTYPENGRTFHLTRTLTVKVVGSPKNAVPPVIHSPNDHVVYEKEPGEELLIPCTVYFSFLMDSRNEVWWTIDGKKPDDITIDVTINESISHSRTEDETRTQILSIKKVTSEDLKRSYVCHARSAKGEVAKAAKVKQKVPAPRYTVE
Experimental: (§1) Equilibrium dissociation constants (KD values) for IL-36R binding to purified anti-IL-36R antibodies were determined using a real-time surface plasmon resonance biosensor using a Biacore 4000 instrument. The Biacore sensor surface was first derivatized by amine coupling with a monoclonal mouse anti-human Fc antibody (GE, # BR-1008-39) to capture anti-IL-36R monoclonal antibodies. All binding studies were performed in 0.01 M Hepes pH 7.4, 0.15 M NaCl, 3 mM EDTA, and 0.05% v/v Surfactant Tween-20 (HBS-ET running buffer) at 25° C. and 37° C. Different concentrations of IL-36R reagents, human IL-36R extracellular domain expressed with a C-terminal myc-myc-hexahistidine tag (hIL-36R-MMH), Macaca fascicularis IL-36R extracellular domain expressed with a C-terminal myc-myc-hexahistidine tag (mfIL-36R-MMH: mROR1 signal sequence (M1-A29). Macaca fascicularis IL36R_ecto domain (D20-A336).mycmycHis6), human IL-36R extracellular domain expressed with a C-terminal mouse IgG2a Fc tag (hIL-36R-mFc: mROR1 signal sequence (M1-A29)-human IL36R (D20-Y337)-mouse IgG2aFc (E98-K330)) or an in-line fusion protein of human IL-36R extracellular domain and IL1RAcP extracellular domain expressed with mouse IgG2a Fc tag (hIL-36R-Trap-mFc: mROR1 signal sequence (M1-A29)-human IL36R ecto domain (D20-Y337)-human IL1RacP ecto domain(S21-E359)-mouse IgG2aFc) in HBS-ET running buffer (ranging from 100 nM to 3.7 nM, 3-fold dilutions) were injected over the anti-IL-36R antibody captured surface for 4 minutes at a flow rate of 30 μL/minute and their dissociation in HBS-ET running buffer was monitored for 10 minutes. Kinetic association rate constant (kₐ) and dissociation rate constant (kd) were determined by fitting the real-time sensorgrams to a 1:1 binding model using Scrubber 2.0c curve fitting software. Binding dissociation equilibrium constants (KD) and dissociative half-lives (t_{1/2}) were calculated from the kinetic rate constants as: […]

[2] = target: T2, human IL-36R extracellular domain expressed with a C-terminal mouse IgG2a Fc tag (hIL-36R-mFc) (human; mouse, UniProt Q9HB29 20-337); assay: SPR Biacore 4000, mAb captured on anti-hFc, 37C
T2 construct: not shown: mouse IgG2a Fc, E98-K330
T2 sequence (looked up): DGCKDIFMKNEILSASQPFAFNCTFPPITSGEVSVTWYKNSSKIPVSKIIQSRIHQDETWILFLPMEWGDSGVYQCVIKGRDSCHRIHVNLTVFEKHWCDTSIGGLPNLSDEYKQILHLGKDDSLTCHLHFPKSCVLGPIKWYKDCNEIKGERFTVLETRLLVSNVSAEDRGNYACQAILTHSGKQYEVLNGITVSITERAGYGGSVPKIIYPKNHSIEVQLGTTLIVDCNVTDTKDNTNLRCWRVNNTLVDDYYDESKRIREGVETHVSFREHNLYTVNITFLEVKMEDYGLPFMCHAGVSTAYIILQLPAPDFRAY
Experimental: as §1

[3] = target: T3, human IL-36R extracellular domain expressed with a C-terminal myc-myc-hexahistidine tag (hIL-36R-MMH) (human, UniProt Q9HB29 20-337); assay: SPR Biacore T200, mAb captured on anti-hFc, 25C, PBS-T pH 7.4 running buffer
T3 construct: also called Human IL-36R-MMH; REGN2105
Experimental: (§2) Additional binding experiments were performed to determine the effect of pH on the rate of dissociation of IL-36R bound to purified anti-IL-36R antibodies, which was determined using a real-time surface plasmon resonance biosensor using a Biacore T200 instrument. The Biacore sensor surface was first derivatized by amine coupling with a monoclonal mouse anti-human Fc antibody (GE, # BR-1008-39) to capture anti-IL-36R antibodies. […] Different concentrations of hIL-36R-MMH and mfIL-36R-MMH prepared in PBS-T, pH7.4 buffer (ranging from 100 nM to 11.11 nM, 3-fold dilutions) were injected over the anti-IL-36R antibody captured surface for 4 minutes at a flow rate of 50 μL/minute and their dissociation in two running buffers, PBS-T, pH7.4 and PBS-T, pH 6.0, was monitored for 10 minutes. All of these binding kinetics experiments were performed at 25° C. and 37° C. Kinetic dissociation constant (kd) were determined by fitting the real-time sensorgrams to a 1:1 binding model using Scrubber 2.0c curve fitting software. Binding dissociative half-lives (t_{1/2}) were calculated from kd as: […]

[4] = target: T3, human IL-36R extracellular domain …; assay: SPR Biacore T200, mAb captured on anti-hFc, 25C, PBS-T pH 6.0 running buffer
Experimental: as §2

[5] = target: T3, human IL-36R extracellular domain …; assay: SPR Biacore T200, mAb captured on anti-hFc, 37C, PBS-T pH 7.4 running buffer
Experimental: as §2

[6] = target: T3, human IL-36R extracellular domain …; assay: SPR Biacore T200, mAb captured on anti-hFc, 37C, PBS-T pH 6.0 running buffer
Experimental: as §2

[7] = target: T1, in-line fusion protein of human IL-36R …; assay: SPR Biacore 4000, mAb captured on anti-hFc, 25C
Experimental: as §1

[8] = target: T2, human IL-36R extracellular domain …; assay: SPR Biacore 4000, mAb captured on anti-hFc, 25C
Experimental: as §1

T3 sequence (Q9HB29 other isoform, or with tags, fused parts or gaps limits assumed): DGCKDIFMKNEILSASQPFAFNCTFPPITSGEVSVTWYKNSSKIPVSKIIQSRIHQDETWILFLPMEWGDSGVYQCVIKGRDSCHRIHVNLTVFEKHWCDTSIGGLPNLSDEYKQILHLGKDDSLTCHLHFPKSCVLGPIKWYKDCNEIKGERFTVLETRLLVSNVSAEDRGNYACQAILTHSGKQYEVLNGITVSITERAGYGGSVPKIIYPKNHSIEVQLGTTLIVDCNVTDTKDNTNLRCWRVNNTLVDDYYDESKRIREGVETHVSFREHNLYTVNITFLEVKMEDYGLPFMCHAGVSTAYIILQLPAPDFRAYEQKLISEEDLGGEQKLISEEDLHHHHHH

B1: H4H14699P2 (antibody, human IgG4 S228P, kappa, V domains shown)
VH: EVQLVESGGGLVQPGRSLRLSCAASGFTFDDYAIHWVRQAPGKGLEWVSVISWNSDIIGYADSVKGRFTVSRDNAKNSLYLQMNSLRTEDTALYYCAKGYNWNFFDYWGQGTLVTVSS
VL: EIVLTQSPATLSLSPGERATLSCRASQSVSSYLAWYQQKPGQAPRLLIYNAANRATDIPARFSGSGSGTDFTLTISSLEPEDFAVYYCQQRSNWPLTFGGGTKVEIKR
notes: Fully human anti-IL-36R antibody
[1]
  100 nM hIL-36R-Trap-mFc Bound (RU): 229 RU
  Kd: 1.06 nM
  koff: 0.000513 s⁻¹
  kon: 484000 M⁻¹ s⁻¹
  t1/2: 23 min
[2]
  100 nM hIL-36R-mFc Bound (RU): 186 RU
  Kd: 0.767 nM
  koff: 0.000456 s⁻¹
  kon: 594000 M⁻¹ s⁻¹
  t1/2: 25 min
[3]
  100 nM Human IL-36R-MMH Bound (RU): 84 RU
  koff: 0.00193 s⁻¹
  t1/2: 6 min
[4]
  100 nM Human IL-36R-MMH Bound (RU): 79 RU
  koff: 0.00293 s⁻¹
  t1/2: 4 min
[5]
  100 nM hIL-36R-MMH Bound (RU): 96 RU
  koff: 0.00415 s⁻¹
  t1/2: 3 min
[6]
  100 nM hIL-36R-MMH Bound (RU): 83 RU
  koff: 0.00581 s⁻¹
  t1/2: 2 min
[7]
  100 nM hIL-36R-Trap-mFc Bound (RU): 188 RU
  Kd: 0.458 nM
  koff: 0.000228 s⁻¹
  kon: 498000 M⁻¹ s⁻¹
  t1/2: 51 min
[8]
  100 nM hIL-36R-mFc Bound (RU): 150 RU
  Kd: 0.359 nM
  koff: 0.000203 s⁻¹
  kon: 564000 M⁻¹ s⁻¹
  t1/2: 57 min

B2: H4H14700P2 (antibody, human IgG4 S228P, kappa, V domains shown)
VH: EVQLVESGGGLVQPGRSLRLSCAASGFTFDDYAMHWVRQTPGKGLEWVSVISWNSDVIAYSDSVKGRFTISRDNAKNSLYLQMNSLGTEDTALYYCAKGHNWNFFDYWGQGTLVTVSS
VL: EIVLTQSPATLSLSPGERATLSCRASQSVSSYLAWYQQKPGQAPRLLIYNVANRATDIPARFSGSGSGTDFTLTISGLEPEDFAVYFCQQRSNWPLTFGGGTKVEIKR
notes: as for B1
[1]
  100 nM hIL-36R-Trap-mFc Bound (RU): 216 RU
  Kd: 0.555 nM
  koff: 0.000253 s⁻¹
  kon: 455000 M⁻¹ s⁻¹
  t1/2: 46 min
[2]
  100 nM hIL-36R-mFc Bound (RU): 174 RU
  Kd: 0.39 nM
  koff: 0.000209 s⁻¹
  kon: 535000 M⁻¹ s⁻¹
  t1/2: 55 min
[3]
  100 nM Human IL-36R-MMH Bound (RU): 128 RU
  koff: 0.000795 s⁻¹
  t1/2: 15 min
[4]
  100 nM Human IL-36R-MMH Bound (RU): 120 RU
  koff: 0.00172 s⁻¹
  t1/2: 7 min
[5]
  100 nM hIL-36R-MMH Bound (RU): 153 RU
  koff: 0.00169 s⁻¹
  t1/2: 7 min
[6]
  100 nM hIL-36R-MMH Bound (RU): 144 RU
  koff: 0.0035 s⁻¹
  t1/2: 3 min
[7]
  100 nM hIL-36R-Trap-mFc Bound (RU): 157 RU
  Kd: 0.283 nM
  koff: 0.000125 s⁻¹
  kon: 442000 M⁻¹ s⁻¹
  t1/2: 92 min
[8]
  100 nM hIL-36R-mFc Bound (RU): 128 RU
  Kd: 0.233 nM
  koff: 0.00012 s⁻¹
  kon: 517000 M⁻¹ s⁻¹
  t1/2: 96 min
